Molecular target: T1, soluble human TLR3 extracellular domain (human, UniProt O15455 24-704)
T1 construct: extracellular domain; Coated on the ELISA plate; also called hTLR3; extracellular domain of human TLR3
Experiment: ELISA, soluble human TLR3 extracellular domain coated on plate, antibody titrated, anti-mouse IgG-HRP detection
Procedure: All 16 mAbs were assessed for binding to the extracellular domain of human TLR3 using an ELISA format as compared to the parental murine mAb C1068. Briefly, soluble human TLR3 extracellular domain was coated into the wells of a 96 well plate and candidate mAbs were incubated at various concentrations (10-3 to 103 ng/ml) and bound antibody was detected with rabbit anti-mouse IgG-HRP for murine IgG1 isotypes (Zymed, South San Francisco, Calif.) or HRP-labeled anti-human IgG (Jackson 109-036-088) for human IgG4 isotypes. $EC50$ values were determined and the screening results are shown in FIG. 9 and Table 2 below.

B1: murine anti-TLR3 mAb C1068 (antibody, V domains shown)
VH: QVQLQQPGAELVQPGTSVRLSCKASGYIFTTYWIHWVKQRPGQGLEWIGEINPNNGRINYNEKFKTKATLTVDKSSSTAYMQLSSLTSEDSAVYYCTRVGVMITTFPYWGQGTLVTVSA
VL: DIQMTQSPASLSASVGETVTITCRASGNIHNYLAWYQQKQGKSPQLLVYNAKTLADGVPSRFSGSESGTQYSLKINSLQPEDFGSYYCQHFWSTPFTFGSGTKLELK
notes: The ELISA text implies a murine IgG1 isotype (detected with anti-mouse IgG-HRP for murine IgG1 isotypes); also called parental murine mAb C1068
  EC50: 8 ng/mL

— patent US8093068 (Janssen / Centocor, dated 2012)
